# Reference: patent US20240116997A1 (BRIGHT PEAK THERAPEUTICS, published 2024)
# Residue numbers refer to the chain shown, from its start. In names and notes the source's numbering stands.
# T1: IL-18 receptor (IL-18Rαβ) on cells (UniProt Q13478 19-541; O95256 20-599, limits assumed)
# T1 sequence (looked up) 1: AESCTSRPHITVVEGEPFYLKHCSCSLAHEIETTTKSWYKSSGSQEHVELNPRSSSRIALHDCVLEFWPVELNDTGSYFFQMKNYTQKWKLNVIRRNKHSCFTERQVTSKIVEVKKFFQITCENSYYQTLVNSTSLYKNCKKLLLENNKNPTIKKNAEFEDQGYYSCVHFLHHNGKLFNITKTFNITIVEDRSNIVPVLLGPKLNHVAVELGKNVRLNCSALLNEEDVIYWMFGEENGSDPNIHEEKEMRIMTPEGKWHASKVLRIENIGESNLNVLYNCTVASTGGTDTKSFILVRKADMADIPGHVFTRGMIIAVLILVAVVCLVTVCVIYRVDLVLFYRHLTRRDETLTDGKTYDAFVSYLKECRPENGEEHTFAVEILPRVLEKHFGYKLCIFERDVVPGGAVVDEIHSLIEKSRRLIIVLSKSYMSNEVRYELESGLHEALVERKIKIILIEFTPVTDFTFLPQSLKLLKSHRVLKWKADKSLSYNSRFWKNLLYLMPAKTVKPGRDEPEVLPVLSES
# T1 sequence (looked up) 2: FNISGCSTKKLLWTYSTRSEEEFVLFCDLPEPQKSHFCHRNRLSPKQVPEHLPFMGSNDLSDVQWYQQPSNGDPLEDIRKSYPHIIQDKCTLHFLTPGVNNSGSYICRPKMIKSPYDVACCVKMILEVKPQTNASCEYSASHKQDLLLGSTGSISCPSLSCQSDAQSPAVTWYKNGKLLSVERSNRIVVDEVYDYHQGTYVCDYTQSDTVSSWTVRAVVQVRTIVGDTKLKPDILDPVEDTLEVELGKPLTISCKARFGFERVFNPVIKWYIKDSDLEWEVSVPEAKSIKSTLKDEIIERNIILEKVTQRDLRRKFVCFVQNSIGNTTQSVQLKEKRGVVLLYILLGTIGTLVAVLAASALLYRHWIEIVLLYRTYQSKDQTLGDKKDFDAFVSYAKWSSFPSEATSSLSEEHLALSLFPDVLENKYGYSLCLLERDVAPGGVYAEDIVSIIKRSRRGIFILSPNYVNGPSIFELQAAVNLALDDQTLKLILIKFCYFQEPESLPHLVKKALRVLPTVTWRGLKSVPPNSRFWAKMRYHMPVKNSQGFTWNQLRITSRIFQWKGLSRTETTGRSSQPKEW
# B1: C190 (Propeptide-C086, non-cleavable control; SEQ ID NO: 68) (ligand)
# chain: MAAEPVEDNCINFVAMKFIDNTLYFIAEDDENLESDYFGKLKSKLSIIRNLNDQVLFIDQGNRPLFEDMTDSDARDNAPRTIFIISMYADSQPRGMAVAISVKCEKISTLSAENKIISFKEMNPPDNIKDTKSDIIFFQRSVPGHDNKMQFESSSYEGYFLAAEKERDLFKLILKKEDELGDRSIMFTVQNED
# B2: C190 + MMP9 (ligand)
# chain: B1 chain
# B3: C136 (C086-GGSGG-IL-18Rα D3-His6, non-cleavable control; SEQ ID NO: 77) (ligand)
# chain: YFGKLKSKLSIIRNLNDQVLFIDQGNRPLFEDMTDSDARDNAPRTIFIISMYADSQPRGMAVAISVKCEKISTLSAENKIISFKEMNPPDNIKDTKSDIIFFQRSVPGHDNKMQFESSSYEGYFLAAEKERDLFKLILKKEDELGDRSIMFTVQNEGGSGGSNIVPVLLGPKLNHVAVELGKNVRLNCSALLNEEDVIYWMFGEENGSDPNIHEEKEMRIMTPEGKWHASKVLRIENIGESNLNVLYNCTVASTGGTDTKSFILVRKADHHHHHH
# B4: C137 (C086-GGGGSGGGGSGGGG-IL-18Rα D3-His6, non-cleavable control; SEQ ID NO: 78) (ligand)
# chain: YFGKLKSKLSIIRNLNDQVLFIDQGNRPLFEDMTDSDARDNAPRTIFIISMYADSQPRGMAVAISVKCEKISTLSAENKIISFKEMNPPDNIKDTKSDIIFFQRSVPGHDNKMQFESSSYEGYFLAAEKERDLFKLILKKEDELGDRSIMFTVQNEGGGGSGGGGSGGGGSNIVPVLLGPKLNHVAVELGKNVRLNCSALLNEEDVIYWMFGEENGSDPNIHEEKEMRIMTPEGKWHASKVLRIENIGESNLNVLYNCTVASTGGTDTKSFILVRKADHHHHHH
# B5: C187 (Propeptide-PLGLAG-C086; SEQ ID NO: 72) (ligand)
# chain: MAAEPVEDNCINFVAMKFIDNTLYFIAEDDENLESDPLGLAGYFGKLKSKLSIIRNLNDQVLFIDQGNRPLFEDMTDSDARDNAPRTIFIISMYADSQPRGMAVAISVKCEKISTLSAENKIISFKEMNPPDNIKDTKSDIIFFQRSVPGHDNKMQFESSSYEGYFLAAEKERDLFKLILKKEDELGDRSIMFTVQNED
# B6: C185 (Propeptide-PLG-C086; SEQ ID NO: 70) (ligand)
# chain: MAAEPVEDNCINFVAMKFIDNTLYFIAEDDENLESDPLGYFGKLKSKLSIIRNLNDQVLFIDQGNRPLFEDMTDSDARDNAPRTIFIISMYADSQPRGMAVAISVKCEKISTLSAENKIISFKEMNPPDNIKDTKSDIIFFQRSVPGHDNKMQFESSSYEGYFLAAEKERDLFKLILKKEDELGDRSIMFTVQNED
# B7: C127 (Propeptide-LinkerX-C086; SEQ ID NO: 69) (ligand)
# chain: MAAEPVEDNCINFVAMKFIDNTLYFIAEDDENLESDSGGPGPAGMKGLPGSYFGKLKSKLSIIRNLNDQVLFIDQGNRPLFEDMTDSDARDNAPRTIFIISMYADSQPRGMAVAISVKCEKISTLSAENKIISFKEMNPPDNIKDTKSDIIFFQRSVPGHDNKMQFESSSYEGYFLAAEKERDLFKLILKKEDELGDRSIMFTVQNED
# B8: C153 (V11I, D37A, C38A, K53A, C76A, C127A) (ligand)
# chain: YFGKLESKLSIIRNLNDQVLFIDQGNRPLFEDMTDSAARDNAPRTIFIISMYADSQPRGMAVTISVKCEKISTLSAENKIISFKEMNPPDNIKDTKSDIIFFQRSVPGHDNKMQFESSSYEGYFLAAEKERDLFKLILKKEDELGDRSIMFTVQNED
# B9: C154 (V11I, E31A, D37A, C38A, K53A, C76A, C127A) (ligand)
# chain: B8 chain with E31A
# B10: C164 (V11I, C38A, S55H, C76A, C127A) (ligand)
# chain: B8 chain with A37D, A53K, S55H
# B11: C163 (V11I, C38A, C76A, Q103K, C127A) (ligand)
# chain: B8 chain with A37D, A53K, Q103K
# B12: C165 (V11I, C38A, S55R, C76A, C127A) (ligand)
# chain: B8 chain with A37D, A53K, S55R
# B13: C160 (V11I, C38A, K53A, C76A, D110A, C127A) (ligand)
# chain: B8 chain with A37D, D110A
# B14: C159 (V11I, C38A, K53A, C76A, H109A, C127A) (ligand)
# chain: B8 chain with A37D, H109A
# B15: C155 (V11I, C38A, D40A, K53A, C76A, C127A) (ligand)
# chain: B8 chain with A37D, D40A
# B16: C156 (V11I, C38A, N41A, K53A, C76A, C127A) (ligand)
# chain: B8 chain with A37D, N41A
# B17: C166 (V11I, C38A, S55T, C76A, C127A) (ligand)
# chain: B8 chain with A37D, A53K, S55T
# B18: C161 (K8R, V11I, C38A, C76A, Q103E, C127A) (ligand)
# chain: B8 chain with K8R, A37D, A53K, Q103E
# B19: IL-18 polypeptide SEQ ID NO: 34 (E06K, K53A, S55A) (ligand)
# chain: B8 chain with E6K, I11V, A37D, A38C, S55A, A76C, A127C
# B20: C167 (V11I, C38A, C76A, S105I, C127A) (ligand)
# chain: B8 chain with A37D, A53K, S105I
# B21: C168 (V11I, C38A, C76A, S105K, C127A) (ligand)
# chain: B8 chain with A37D, A53K, S105K
# B22: C158 (V11I, C38A, K53A, C76A, G108A, C127A) (ligand)
# chain: B8 chain with A37D, G108A
# B23: C157 (V11I, C38A, K53A, C76A, C127A, D132A) (ligand)
# chain: B8 chain with A37D, D132A
# B24: C162 (K8E, V11I, C38A, C76A, Q103R, C127A) (ligand)
# chain: B8 chain with K8E, A37D, A53K, Q103R
# Molecular target: T1, IL-18 receptor (IL-18Rαβ) on cells
# Test: cell-based or functional assay
HEK-blue EC50 [nM],Fold potency loss vs C086 [fold],Binder
404,,B1
198,,B2
0.884,21,B3
2.08,49,B4
1240,29400,B5
2560,60900,B6
295,7000,B7

# Molecular target: T1, IL-18 receptor (IL-18Rαβ) on cells
# Test: cell-based or functional assay
# Remark: another data set of the same source
row,"EC50 (pM), HEK-Blue IL-18R reporter assay [pM]",Binder
1,14.1,B8
2,11.9,B9
3,3.14,B10
4,1.5,B11
5,1.91,B12
6,2.02,B13
7,19.5,B14
8,0.52,B15
9,11.7,B16
10,4.73,B17
11,2.01,B18
12,272,B19
13,5.37,B20
14,7.73,B21
15,15.6,B22
16,1.95,B23
17,2.3,B24

# Molecular target: T1, IL-18 receptor (IL-18Rαβ) on cells
# Test: cell-based or functional assay
# Remark: another data set of the same source
row,"EC50 (nM), IFNγ induction, NK-92 cells [nM]",Binder
1,0.062,B8
2,0.067,B9
3,0.176,B10
4,0.414,B11
5,0.098,B12
6,0.057,B13
7,0.028,B14
8,0.558,B15
9,0.056,B16
10,0.103,B17
11,0.061,B18
12,0.824,B19
13,0.098,B20
14,1.37,B21
15,0.123,B22
16,0.073,B23
17,0.093,B24
